Positions count from the first letter of the chain named.
Experiments:
Experiment in all cases: cleavage_in_vitro
[1] = target: T1, BamHI(E86P) E86P (Bacillus amyloliquefaciens) (UniProt P23940); conditions: NEB4, 37 C
T1 sequence: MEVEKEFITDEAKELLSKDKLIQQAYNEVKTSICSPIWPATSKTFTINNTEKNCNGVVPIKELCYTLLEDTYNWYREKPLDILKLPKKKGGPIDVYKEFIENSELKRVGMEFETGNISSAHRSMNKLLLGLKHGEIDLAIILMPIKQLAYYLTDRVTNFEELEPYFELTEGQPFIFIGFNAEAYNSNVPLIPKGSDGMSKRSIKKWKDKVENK

[2] = target: T2, PstI (Providencia stuartii 164) (UniProt P00640); conditions: NEB4, 37 C
T2 sequence: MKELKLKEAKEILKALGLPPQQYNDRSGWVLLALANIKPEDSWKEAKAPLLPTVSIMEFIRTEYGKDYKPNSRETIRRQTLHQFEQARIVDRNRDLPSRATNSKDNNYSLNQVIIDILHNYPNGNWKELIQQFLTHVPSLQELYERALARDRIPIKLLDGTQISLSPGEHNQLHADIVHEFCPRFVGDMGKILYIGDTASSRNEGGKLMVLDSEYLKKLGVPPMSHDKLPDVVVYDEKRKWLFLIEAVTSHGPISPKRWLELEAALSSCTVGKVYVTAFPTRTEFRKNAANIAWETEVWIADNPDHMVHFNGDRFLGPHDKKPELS

[3] = tested on: T3, SbfI-HF K251A (Streptomyces species Bf-6); conditions: NEB4, 37 C
T3 sequence: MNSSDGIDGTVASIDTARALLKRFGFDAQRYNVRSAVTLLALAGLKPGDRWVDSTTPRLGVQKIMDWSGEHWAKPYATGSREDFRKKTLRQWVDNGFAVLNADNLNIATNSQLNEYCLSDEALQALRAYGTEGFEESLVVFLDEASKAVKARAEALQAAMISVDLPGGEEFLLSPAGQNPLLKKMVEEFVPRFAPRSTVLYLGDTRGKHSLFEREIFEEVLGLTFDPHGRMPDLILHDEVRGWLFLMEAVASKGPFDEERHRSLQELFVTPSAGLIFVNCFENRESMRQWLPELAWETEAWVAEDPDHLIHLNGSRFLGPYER

[4] = target: EcoRI-HF K62E (Escherichia coli RY13) (UniProt P00642); conditions: NEB4, 37 C
[5] = target: T4, PstI-HF D91A (Providencia stuartii 164) (UniProt P00640); conditions: NEB4, 37 C
T4 sequence: T2 sequence with D91A

[6] = tested on: T5, BspQI (Bacillus sphaericus); conditions: NEB4, 50 C
T5 sequence: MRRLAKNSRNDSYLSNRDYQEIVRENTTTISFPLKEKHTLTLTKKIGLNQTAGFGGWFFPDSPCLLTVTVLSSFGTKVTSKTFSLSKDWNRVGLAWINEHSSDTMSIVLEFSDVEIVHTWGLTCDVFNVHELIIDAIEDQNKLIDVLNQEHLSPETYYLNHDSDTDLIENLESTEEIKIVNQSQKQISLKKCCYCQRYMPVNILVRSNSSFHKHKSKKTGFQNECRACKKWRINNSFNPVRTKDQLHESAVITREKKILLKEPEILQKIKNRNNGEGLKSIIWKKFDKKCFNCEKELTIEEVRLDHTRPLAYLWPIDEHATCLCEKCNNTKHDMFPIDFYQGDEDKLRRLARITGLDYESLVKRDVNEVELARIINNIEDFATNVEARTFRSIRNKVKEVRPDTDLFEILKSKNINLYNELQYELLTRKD

With lambda phage DNA the activity (fidelity index) [1] was greater than 4000, the activity (fidelity index) [2] was 8 and the activity (fidelity index) [3] was 250. For the same substance, the activity (fidelity index) [4] was 16000, the activity (fidelity index) [5] was greater than 2000 and the activity (fidelity index) [6] was 4.

From patent publication US20090029376
